This is an account of results in patent US20040110287A1, “Multi-step method for the differentiation of insulin positive, glucose responsive cells” (ES Cell International Pte Ltd., priority 2002, published 2004).

The test system of this assay is pdx1+ cells. The experiment in a line: Expansion of pdx1+ cells in non-adherent clusters of human pancreatic duct cells. The format is cell-based. On the procedure: Pancreatic duct cells were isolated from human donor tissue, using the methods described in detail in Example 2. The cells were plated as non-adherent cell clusters in DMEM-F12 (pH 7.4), 2 mM glutamine, 1% penicillin-streptomycin, 2% B27 (Life Sciences Technologies) and 8 mM HEPES. Following 1-4 days in culture, the media was changed to DMEM-F12 (pH 6.9-7.1), 2 mM glutamine, 1% penicillin-streptomycin, and 2% B27 (Life Sciences Technologies). This media was supplemented with the following four factors: dexamethasone (10^−7-10^−9 M), forskolin (10 μM), insulin (20 μg/ml) and FGF-18 (20 ng/ml). The media was optionally supplemented with heparin which is often used to enhance the effects of FGF. The cells were cultured for a number of days in this supplemented media which was changed daily.
Following approximately one day in culture, Pdx1+ cells (a marker of pancreatic progenitor cells) began appearing on the surface of the non-adherent clusters. The size and number of Pdx1+ cells continues to increase for approximately 12 days. Following 8 to 12 days in culture under expansion conditions, non-adherent cell clusters containing an increased number of Pdx1+ cells were subjected to a differentiation protocol to produce insulin+, glucose responsive cell clusters.
This effect on pdx1 expression was further augmented if the follistatin-related factor follistatin or a combination of follistatin and the GLP-1 agonist exendin-4 was added to the above list of factors used to supplement the acidic culture medium. Briefly, cultures expanded in forskolin (a cAMP elevating agent), dexamethasone (a corticosteroid), insulin, FGF18 (a FGF family member), heparin (known to potentiate the activity of FGF family members), and follistatin (a follistatin-related factor) contained approximately 281 fold more pdx1+ cells than cells differentiated in the absence of the expansion protocol. […]

B1: follistatin (protein, UniProt P19883 30-344, looked up)
Follistatin: GNCWLRQAKNGRCQVLYKTELSKEECCSTGRLSTSWTEEDVNDNTLFKWMIFNGGAPNCIPCKETCENVDCGPGKKCRMNKKNKPRCVCAPDCSNITWKGPVCGLDGKTYRNECALLKARCKEQPELEVQYQGRCKKTCRDVFCPGSSTCVVDQTNNAYCVTCNRICPEPASSEQYLCGNDGVTYSSACHLRKATCLLGRSIGLAYEGKCIKAKSCEDIQCTGGKKCLWDFKVGRGRCSLCDELCPDSKSDEPVCASDNATYASECAMKEAACSSGVLLEVKHSGSCNSISEDTEEEEEDEDQDYSFPISSILEW
Take B1: the “fold more pdx1+ cells than cells differentiated in the absence of the expansion protocol” value (4 days basal medium, 4 days acidic expansion medium, before differentiation) is reported as “approximately 281 fold”. Also, the “fold increase in total islet equivalents (IEs) versus multistep differentiation protocol alone” value (FIG. 5) is 281 fold. The “pdx1 expression versus expansion medium alone” value (FIG. 6 and FIG. 7, added to expansion medium) is on record as “increase in pdx1 expression”.
